# In a protein production outcome set (Wang et al. 2014):
# Experiment: label from the status in PepcDB records
row,Sequence,protein production
1,MALSDTKLRKIKAPYNGEAELADRDGLSVRVSPKALITFNYRFRWEGKQQRIKLGRYPGLKLIDARKKVNEYRHNLDEGLDPRVVQNESRSHNLFGDMCEAFMTKYVMTELRPKTQTLYKSTFNKYVTPYKNIDIERYKYTDWIAYFDWVKKESSSANAGSVLKRFKAVANWAKARGQIKHSHLIDIPIKAIGSHQQKRERCLEWDEVIGLWRQIESSKSTPQCKTCIQLLLLTGARNAEIREARRDEFDLDKNIWLLPPERSKTKKQVRRPLSTGVIELINKLDLIYGQDREYLIAGDIKGKPLTTHAVNRFVQRMNNHLKYPHFVPHDFRRTIVTRLSEHKVELHVTEKMLGHELGGILTRYNKHDWIDEQREAYELYWQKVTLLLKN,failed
2,MALTATVDVELKIRHSVPQRREPTKWRRIMYAITGITGKVGGAMARALLAAGQPVRAIVRDATKGRQWAALGCDVAIATMEDAEALTQAFKGATAVFILPPPVFDPEPFYPEAQAVIDSVATALRAAKPARVVCLSTVGADAVQDNLLSQHTKMETALSALPLALTLLRPAWFLDNVAWDVSSARGAGLIHSFLAPTGRALPMVAAEDVGRVAATLIQQDWSGTRIVELEGPERVSPDDLAAAFTTVLGKPVRAVPVPRETWEALFRSQGMRNPQPRMRMLDGFNEGWIAFADEARTIKGTISATTVVQALVAGEGA,failed
3,MALVYLVQSDTTIGLLSKDSEKLNALKGRPKNQSVLIESADFSTLKSLVRAPNAFKNLIRRSAKTTFIYPNSKAVRVIRGRHGDFLNRFKTLYSTSANLTQCAYDKEIASNLADVIVSDERGLFESSSSKIFRLYKDKKVRIR,failed
4,MALWMDAGATPTTEKEKADLEAISALKESTAIEFKEEGNECVRKGKKHYSEAIDCYTKAISQGVLSDSETSILFSNRSHVNLLLGNYRRALTDAEESMRLSPHNVKAVYRAAKASMSLDLLNEAKSYCEKGIENDPSNEDMKKLLKLVNSKKQEKEQHEAQASQAVVEAKACLSAIENRGVKIGKAMYRELTGLKKPMLDKNNILHWPVLLLYAEAMTSDFVEDFCETDMFATHLDMMFSEDSPPLPWDKNNEYSRDVIELYYEASSGTPLPRSRVLQYLLEGTKGSQAETTGEEDTSATKTPSYLKGSSGMVKVNERRTLHDVLKEPKFVIPEIPVFYIVSKRSKFYKDFTAGKWTPPN,failed
5,MAMAVPVSARPQSPAEGFYAINNQFQTNGPKGFSEIKILANEDMFLRMDLPGVPDEGGLSVYHNRSQETVVVFAKAPKVHTHDSTERRYQTMTGIGCSCCAISSITTHMSDGVFRVILSKTRIDPHRSPCTDPALTGPVLQPHPLAFPQPTMAYESKQLPNGKLFVRADMPGVPKENFTVSVTNGRVKVTGQAPAVSHDSSGRFYSGDVAMLSTPVDIPSRRIKTIAKNGVIRLLIPPF,failed
6,MAMSVKTISPIEAHRLVTGGRAVLVDVRERHEIAREHIDGAIELPLTGFKHGDLGAAHGRKAIFFCHSGGRTRMYAGQIDAKARGVCEPYVLGGGILAWRRAGFPTVQGPKPPSLFQRLFGRKPAD,failed
7,MANAVVAIAGSSGLIGSALTAALRAADHTVLRIVRRAPANSEELHWNPESGEFDPHALTDVDAVVNLCGVNIAQRRWSGAFKQSLRDSRITPTEVLSAAVADAGVATLINASAVGYYGNTKDRVVDENDSAGTGFLAQLCVDWETATRPAQQSGARVVLARTGVVLSPAGGMLRRMRPLFSVGLGARLGSGRQYMSWISLEDEVRALQFAIAQPNLSGPVNLTGPAPVTNAEFTTAFGRAVNRPTPLMLPSVAVRAAFGEFADEGLLIGQRAIPSALERAGFQFHHNTIGEALGYATTRPG,failed
8,MANHKPEIVITYCTQCQWLLRAAWLAQELLSTFADDLGRVALEPGTGGIFRITCNGVQIWERKADGGFPEAKVLKQRVRDQVDPQRDLGHNDR,not failed
9,MANIAVQRIKREFKEVLKSEETTKNQIKVDLVDENFTELRGEIAGPPDTPYEGGRYQLEIKIPETYPFNPPKVRFITKIWHPNISSVTGAICLDILKDQWAAAMTLRTVLLSLQALLAAAEPDDPQDAVVANQYKQNPEMFKQTARLWAHVYAGAPVSSPEYTKKIENLCAMGFDRNAVIVALSSKSWDVETATELLLSN,not failed
10,MANLKVGDVLEDRYRIETPIARGGMSTVYRCLDLRLGRSMALKVMEEDFVDDPIFRQRFRREARSMAQLNHPNLVNVYDFSATDGLVYLVMELITGGTLRELLAERGPMPPHAAVGVMRGVLTGLAAAHRAGMVHRDIKPDNVLINSDHQVKLSDFGLVRAAHAGQSQDNQIVGTVAYLSPEQVEGGEIGPASDVYSAGIVLFELLTGTTPFSGEDDLDHAYARLTEVVPAPSSLIDGVPSLIDELVATATSINPEDRFDDSGEFLSALEDVATELSLPAFRVPVPVNSAANRANAQVPDAQPTDMFTTHIPKTPEPDHTAIIPVASANETSILPAQNMAQNMAQNPLQPPEPDFAPEPPPDTALNIQDQELARADEPEINTVSNRSKLKLTLWSIFVVAVIAAVAVGGWWFGSGRYGEIPQVLGMDEVQAVAVVEEAGFVAVAEPQYDNEVPTGSIIGTEPSFGERLPRGEDVSVLVSQGRPVVPDLSEDRSLSTVREELEQRTFVWVDGPGEYSDDVPEGQVVSFTPSSGTQLDVGETVQIHLSRGPAPVEIPDVSGMGVDQATRVLERAGLSVERTEEGFDAETPNGDVYGTSPKVSTEVKRGTSVVLQVSNAISVPDVVGMTKDEATAALAEEGLVVASTSIIPGEAASSADAVVTVEPESGSRVDPAHPQVSLGLAGEIQVPSVVGRKVSDARSILEEAGLTLTTDADDNDRIYSQTPRARSEVSVGGEVTVRAF,failed
11,MANQLDASVKDDLKTQFVTREGTYRLLTLSEYSRPNRVGYSSNQSSPQVRVSMVTLPSPAQGKLGSDVGVGTPVGGGTAGANTTTTNGSSPGASPTGAAGASTAISNGGAGGDYSHSNHNSNSAGNNTVEARLGGGISMHSMMNGGVVDQNGVATNQVLGGDRICFNFGRDLYVYSFRGAKKGTEMSKPIDKKFYKGTNPSCHDFNISSATPTGAPLLVGFTTGQIQLVSPHVGPREVRKLFNEERLIDKTKVTCLKWLPNSPHLFLAAHASGHLYLYNEELPCAATAPSYQPFKLGDGYTILTSKSKTTRNPLFKWVFSTDNCCVNEFCFSPCGSHLAVVSQDGFLRVFHYDTMELLGIARSYFGGFLCVCWSPDGKYIVVGGEDDLVTVWSLHERRVVARGQGHRSWVSVVAFDPYTTSYTNWDGGDFSDDENQMNEYSHSREARFSGDSTANGGFEGFDRNSTPVHADRNGPHSASFRSDASSAEKLMSYRLGSVSQDTQICLWDITEDVLRHPLVLRQPANSERAYLNGGVDEEAEAEDGIKVIRPVAMSGQATGQQAESGSCSPTREAAGGGTGNGAGEHSNSSSSKFSTANCTISSQSSPDDCDTEAATPASTSSNAGAGSVAGAGAVASTKQNNRNHGTGNSIKFPNCISATKSDSIDGGGGSGSGQRPSQTTSGYNSKTSNSSNKSSNSGSGFSAFNSLTQRLSNFSFLSSSEKKGAGYEGSHSTAHRQHRKAMSMLKSYNQHNHTGGHNNHSQSNNSSSSNFGHSSTLDSNAAGAIGSSSTAHSFGSLKLSRSSHHSSLATAAHASGSAAGSGSGVSSFDPMQLIGTPACPRFDECPLLEPLVCKKIAHERLTALIFREDCFLTACQDGFIYTWARPGHATHATQHLSPGQAAAPGGTVI,failed
12,MANVSLNKVDKQALVHQPNLLRECFALLVNAHYQTSPNDLLHLLRDDNSSVYLAMDKQNIIGVILTVEEGGLDDELIEAIQLGQRRPKGHLTPITIINQLGLVKVGKLITSRVMRIAVHPDLQGSGIGKRMLTLLEESVGAHVDYLSTSFGATDELIQFWQQAGYQSIRLGTMRDAASGCYSLLMVRQLANKSQ,failed
13,MANWLNQLQSLLGQSSSSTSSSADQGLGKLLVSGALGGLAGLLVANKSARKLLTKYGTNALLVGGGAVAGTVLWNKYKDKIRAAHQDEPQFGAQSTPLDERTERLILALVFAAKSDGHIDANERAAIDQQLREAGVEEQGRVLIEQAIEQPLDPQRLATGVRNEEEALEIYFLSCAAIDIDHFMERSYLNALGDALKIPQDVREGIERDLEQQKRTLAE,failed
14,MANWRGAGDSLSTGTGGSEAPPRKSPARLHQWRKLRVSHDDRTCPYQRCRHHLLRRIADARRRYRLLCRRSEHEHSRRVDRSFAEARHGRRRPGRCRSSHPQGCGHRQRDPHKIMSAAPAAPALDALGPDTPAHTVDAFHRGRFWLVQPKHGGHRAGMDAMMLAASVPSVFGGRLADFGAGAGAAGLAVLSRCPAARAVLVERAPEMAAFASATLAHPGNAHLSDRASVLVADVTVSGQARVAAGLADNDFDYVIMNPPFNAARDRATPDRLRKEAHVMEDGLFESWIRSAAAVVRPRGGLAVIARPEQLGAILDAMSGRFGDAEMLAVHPRPDAAAIRIIVRAALGARGKLAIRPPLMLHAQAGNGPDERSEMITNGLASLFGD,failed
15,MAPAKSPRAWQRMLSGRRLDLLDPSPLDVEIADIAHGLARVARWNGQTRGDHAFTVAQHCLIVETIFCRMCPGATPDEMQMALLHDAPEYVIGDMISPFKSVVGGGYKTVEKRLEAAVHLRFGLPPHASRELKDRIKKADTVAAFFEATELAGFSTAEAQKFFGLPRGITRDMFDIIPLPSTEAQRLFIARFEAIETLRVTRTGGAV,not failed
16,MAPDNDHFLDSPSPPLLEMRHHQSATENGGGCGEIVEVQGGHIVRSTGRKDRHSKVCTAKGPRDRRVRLSAPTAIQFYDVQDRLGFDRPSKAVDWLITKAKSAIDDLAQLPPWNPADTLRQHAAAAANAKPRKTKTLISPPPPQPEETEHHRIGEEEDNESSFLPASMDSDSIADTIKSFFPVASTQQSYHHQPPSRGNTQNQDLLRLSLQSFQNGPPFPNQTEPALFSGQSNNQLAFDSSTASWEQSHQSPEFGKIQRLVSWNNVGAAESAGSTGGFVFASPSSLHPVYSQSQLLSQRGPLQSINTPMIRAWFDPHHHHHHHQQSMTTDDLHHHHPYHIPPGIHQSAIPGIAFASSGEFSGFRIPARFQGEQEEHGGDNKPSSASSDSRH,failed
17,MAPDQAKPAPFRDQFHRVLGVIRRGKLLILACVLLVVAPTIVFLQQATPRYTANAAVLIEAPDATDSLLDRSDMSRTRLNDLMITTEAEVLGSTPLARRVIDKLGLDQDPEFNARLRKPTAFQRVTFWLNPINWIPDGWRAGRKDEATMTPKVREELQRARVTATFLGRLSVKPKRRSFVIDLEFTATSREKSALIVNTLADLYVFDRLEAGFDETKRVNEWLAQRLESLRGDVALAEAAVETYRAENGLRPVGERQGTVANQQLTELNSRLVLARADLAQKQARLDQVRSLSRGGGVATASDVLQSSLIQQLRQREAEVRSALSEAEKTYGERHPKIIGMRADLGQLQSSIGGEIGKIASSAEGDVEIAAIGVRTLEREIVGLRQEGDVQGGAIVRLRELERQADSSRSLYEAFLSRFKRNAEQEQIQRANARLLSPADIPASPSYPRKIPILLVMMVVGFGLGIGLVFLVEGLDGTVHSTEELEALVGLPPLAVIPVVRGRGGGAVVLARPRAPIAHAFRNLRTALTLNGEETRRRIVMVSSSVPKEGKSFVSLGLALTYARAGERVLLIDADVHRSSLAATIGIDGTRGLAQVLRGEATLDQVVTRPPGMDLDFLAAGEASAQEELFDASTLGALLSEPASRYDRIIIDTAPVLAVADARIVAGVADQVIYLVRWGSTQQTAVRNGIKLLRDVRAPLAGMVLSQVDVRRHAVYGYGDYGASYGRYQEYYAE,failed
18,MAPEMNNKLSYGEKKRAYVTFLAGTGDYVKGVVGLAKGLRKTKSKYPLVVAVLPDVPADHRRQLLDQGCVIKEIQPVYPPDNQTQFAMAYYVLNYSKLRIWKFVEYSKLIYLDGDIQVFENIDHLFDLPDGNFYAVKDCFCEKTWSHTPQYKIGYCQQCPDKVTWPESELGPKPPLYFNAGMFVYEPSLPTYYNLLETLKVVPPTPFAEQDFLNMYFKDIYKPIPPVYNLVLAMLWRHPENIELNEAKVVHYCAAGAKPWRFTGQEGNMEREDIKMLVEKWWDIYNDESLDYKNFNVHCGQKEDVHRKPKTLPQFFTDLSEADVLQCAKAPSAA,failed
